The target of one experiment is T1, mFcγRIIb (Mus musculus, UniProt P08101).
T1 construct: extracellular region, C-terminal His- and GST-tag; also called mouse FcγRII
T1 sequence (receptor extracellular region, looked up): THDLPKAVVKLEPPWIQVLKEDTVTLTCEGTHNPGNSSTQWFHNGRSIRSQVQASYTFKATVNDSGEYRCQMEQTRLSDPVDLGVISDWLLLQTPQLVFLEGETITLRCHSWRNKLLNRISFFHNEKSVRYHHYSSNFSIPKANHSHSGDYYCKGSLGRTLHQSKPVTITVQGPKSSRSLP
Briefly: SPR.

The target of a further experiment is T2, cynoFcγRIIb (Macaca fascicularis, UniProt A0A140HDP4).
T2 construct: extracellular region, C-terminal His- and GST-tag; also called cynomolgus monkey FcγRIIb
T2 sequence (receptor extracellular region): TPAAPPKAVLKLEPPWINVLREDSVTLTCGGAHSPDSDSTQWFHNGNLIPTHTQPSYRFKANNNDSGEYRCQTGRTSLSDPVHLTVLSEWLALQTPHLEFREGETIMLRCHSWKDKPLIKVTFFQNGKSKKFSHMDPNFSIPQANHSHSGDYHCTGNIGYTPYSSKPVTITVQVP
Put plainly: SPR, Kd. The protocol:
Variants were screened for receptor affinity using Biacore™ technology, also referred to as Biacore herein, a surface plasmon resonance (SPR) based technology for studying biomolecular interactions in real time. SPR measurements were performed using a Biacore 3000 instrument (Biacore, Piscataway, N.J.). A protein A/G (Pierce Biotechnology) CM5 biosensor chip (Biacore) was generated using a standard primary amine coupling protocol. All measurements were performed using HBS-EP buffer (10 mM HEPES pH 7.4, 0.15 M NaCl, 3 mM EDTA, 0.005% vol/vol surfactant P20, Biacore). Antibodies at 20 nM or 50 nM in HBS-EP buffer were immobilized on the protein A/G surface and FcγRs were injected. After each cycle, the surface was regenerated by injecting glycine buffer (10 mM, pH 1.5). Data were processed by zeroing time and response before the injection of FcγR and by subtracting appropriate nonspecific signals (response of reference channel and injection of running buffer). Kinetic analyses were performed by global fitting of binding data with a 1:1 Langmuir binding model using BIAevaluation software (Biacore).
Variant antibodies were tested for their affinity to mouse or cynologous monkey FcγRs using Biacore SPR as described above. Specifically, antibodies were first immobilized on a protein A/G chip to high density, and then followed by injections of the extracellular domain of the mouse or cynologous monkey FcγR of interest. Both association and dissociation phases were tracked in real time using the Biacore technology.
Background: SPR reads the build-up and loss of mass on a sensor chip optically.

The target of experiment [1] is T3, human FcγRIIb receptor protein (R&D Systems) (human, UniProt P31994 46-217).
T3 construct: Bought protein injected over captured antibody in Biacore; also called CD32b
T3 sequence (looked up): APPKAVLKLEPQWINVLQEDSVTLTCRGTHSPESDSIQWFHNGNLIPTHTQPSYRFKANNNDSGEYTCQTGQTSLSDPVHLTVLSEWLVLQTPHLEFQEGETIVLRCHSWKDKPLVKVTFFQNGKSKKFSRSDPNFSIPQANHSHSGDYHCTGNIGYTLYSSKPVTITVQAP
Briefly: SPR.

Experiment [2] addresses T4, human FcγRIIa (131R), His- and GST-tagged (human, UniProt P12318 34-217).
T4 construct: Expressed in HEK293T cells, purified by nickel chromatography; also called R131 FcγRIIa; not shown: 6xHis and GST tags of the pTT5 vector
T4 sequence (looked up): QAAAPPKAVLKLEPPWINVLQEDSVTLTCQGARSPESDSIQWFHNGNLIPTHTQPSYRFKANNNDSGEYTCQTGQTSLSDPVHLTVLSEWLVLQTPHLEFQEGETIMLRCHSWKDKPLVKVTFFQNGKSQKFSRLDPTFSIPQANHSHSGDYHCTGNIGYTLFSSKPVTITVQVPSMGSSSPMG
Put plainly: SPR.

The target of experiment [3] is T5, human FcγRIIb on cells (transfected HEK293T cells; primary human B cells) (human, UniProt P31994 43-310).
T5 construct: whole, on cells; also called CD32b
T5 sequence (looked up): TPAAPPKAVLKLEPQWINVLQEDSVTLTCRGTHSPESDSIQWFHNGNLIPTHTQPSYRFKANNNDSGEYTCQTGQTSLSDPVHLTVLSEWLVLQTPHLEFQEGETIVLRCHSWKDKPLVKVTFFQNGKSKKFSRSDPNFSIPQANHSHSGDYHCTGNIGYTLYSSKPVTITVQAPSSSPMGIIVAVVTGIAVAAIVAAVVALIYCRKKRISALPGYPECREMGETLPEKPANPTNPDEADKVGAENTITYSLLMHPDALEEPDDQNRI
Briefly: flow cytometry on FcγRIIb-transfected 293T cells [middle left panel]. The method, then: In order to validate the Biacore data and evaluate receptor binding of the variants on the cell surface, binding of select antibodies to cells expressing FcγRIIb was measured. […] HEK293T cells in DMEM with 10% FBS were transfected with human FcγRIIb cDNA in pCMV6 expression vector (Origene Technologies, Rockville, Md.), cultured for 3 days, harvested, washed twice in PBS, resuspended in PBS with 0.1% BSA (PBS/BSA), and aliquoted at 2×10^5 cells per well into 96-well microtiter plates. Fc variant antibodies were serially diluted in PBS/BSA then added to the cells and incubated with mixing for 1 h at room temperature. After extensive washing with PBS/BSA, phycoerythrin (PE)-labeled anti-human-Fab-specific goat F(ab′)2 fragment was added for detection. Cells were incubated for 30 min at room temperature, washed, and resuspended in PBS/BSA. Binding was evaluated using a FACSCanto II flow cytometer (BD Biosciences, San Jose, Calif.), and the mean fluorescence intensity (MFI) was plotted as a function of antibody concentration using Graph Pad Prism software (GraphPad Software, San Diego, Calif.) from which half-maximal binding (EC50) values were determined by sigmoidal dose response modeling.

For experiment [4], the target named is T6, human FcγRIIa (131H), His- and GST-tagged (human, UniProt P12318 34-217).
T6 construct: also called H131 FcγRIIa; HIIa; not shown: 6xHis and GST tags of the pTT5 vector
T6 sequence (looked up): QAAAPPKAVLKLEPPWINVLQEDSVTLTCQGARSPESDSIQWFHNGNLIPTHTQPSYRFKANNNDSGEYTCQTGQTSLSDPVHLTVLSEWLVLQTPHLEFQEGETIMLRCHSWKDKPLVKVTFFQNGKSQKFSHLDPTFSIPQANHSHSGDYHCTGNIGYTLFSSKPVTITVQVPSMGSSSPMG
Put plainly: SPR.

For experiment [5], the target named is T7, human FcγRIIIa (158V), His- and GST-tagged (human, UniProt P08637 17-208).
T7 construct: also called V158 FcγRIIIa; VIIIa; not shown: 6xHis and GST tags of the pTT5 vector
T7 sequence (P08637 17-208 F176V): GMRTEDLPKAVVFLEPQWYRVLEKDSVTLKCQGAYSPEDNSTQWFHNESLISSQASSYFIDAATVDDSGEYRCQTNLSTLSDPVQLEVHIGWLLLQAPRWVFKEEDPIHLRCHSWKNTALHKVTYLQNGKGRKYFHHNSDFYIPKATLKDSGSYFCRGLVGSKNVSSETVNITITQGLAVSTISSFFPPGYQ
Put plainly: SPR.

The target of experiment [6] is T8, human FcγRI receptor protein (R&D Systems) (human, UniProt P12314 16-288).
T8 construct: also called soluble FcγRI; solFcγRI
T8 sequence (P12314 16-288 limits assumed): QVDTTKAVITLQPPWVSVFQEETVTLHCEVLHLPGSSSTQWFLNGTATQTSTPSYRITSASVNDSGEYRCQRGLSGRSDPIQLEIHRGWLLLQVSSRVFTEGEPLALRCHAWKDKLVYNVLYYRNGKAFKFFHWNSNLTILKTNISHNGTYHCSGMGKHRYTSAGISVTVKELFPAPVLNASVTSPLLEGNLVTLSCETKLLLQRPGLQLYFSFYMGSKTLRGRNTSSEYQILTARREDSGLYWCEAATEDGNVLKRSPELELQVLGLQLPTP
Briefly: SPR.

B1: L234W/G236D/S239E/S267E (antibody, human IgG1, kappa)
heavy: EVQLVESGGGLVKPGGSLKLSCAASGYTFTSYVMHWVRQAPGKGLEWIGYINPYNDGTKYNEKFQGRVTISSDKSISTAYMELSSLRSEDTAMYYCARGTYYYGTRVFDYWGQGTLVTVSSASTKGPSVFPLAPSSKSTSGGTAALGCLVKDYFPEPVTVSWNSGALTSGVHTFPAVLQSSGLYSLSSVVTVPSSSLGTQTYICNVNHKPSNTKVDKKVEPKSCDKTHTCPPCPAPEWLDGPEVFLFPPKPKDTLMISRTPEVTCVVVDVEHEDPEVKFNWYVDGVEVHNAKTKPREEQYNSTYRVVSVLTVLHQDWLNGKEYKCKVSNKALPAPIEKTISKAKGQPREPQVYTLPPSREEMTKNQVSLTCLVKGFYPSDIAVEWESNGQPENNYKTTPPVLDSDGSFFLYSKLTVDKSRWQQGNVFSCSVMHEALHNHYTQKSLSLSPGK
light: DIVMTQSPATLSLSPGERATLSCRSSKSLQNVNGNTYLYWFQQKPGQSPQLLIYRMSNLNSGVPDRFSGSGSGTEFTLTISSLEPEDFAVYYCMQHLEYPITFGAGTKLEIKRTVAAPSVFIFPPSDEQLKSGTASVVCLLNNFYPREAKVQWKVDNALQSGNSQESVTEQDSKDSTYSLSSTLTLSKADYEKHKVYACEVTHQGLSSPVTKSFNRGEC
notes: HuAM4G7 anti-CD19 IgG1 (m1) with these Fc substitutions, EU index; copies: 2 + 2
As to B1, in the experiment with mFcγRIIb, the “Fold vs WT IgG1 (Kd)” value amounted to 0.029 fold. The binding result with cynoFcγRIIb is reported as “no binding”. For the same molecule, in experiment [1], the “Fold vs WT IgG1” value came out at 11.4 fold and the Kd came out at 129 nM. In addition, in experiment [2], the “Fold vs WT IgG1” value came to 5.69 fold and the dissociation constant (Kd) came out at 151 nM.

B2: anti-CD19 antibody HuAM4G7 IgG1 S267E/H268E (antibody)
heavy: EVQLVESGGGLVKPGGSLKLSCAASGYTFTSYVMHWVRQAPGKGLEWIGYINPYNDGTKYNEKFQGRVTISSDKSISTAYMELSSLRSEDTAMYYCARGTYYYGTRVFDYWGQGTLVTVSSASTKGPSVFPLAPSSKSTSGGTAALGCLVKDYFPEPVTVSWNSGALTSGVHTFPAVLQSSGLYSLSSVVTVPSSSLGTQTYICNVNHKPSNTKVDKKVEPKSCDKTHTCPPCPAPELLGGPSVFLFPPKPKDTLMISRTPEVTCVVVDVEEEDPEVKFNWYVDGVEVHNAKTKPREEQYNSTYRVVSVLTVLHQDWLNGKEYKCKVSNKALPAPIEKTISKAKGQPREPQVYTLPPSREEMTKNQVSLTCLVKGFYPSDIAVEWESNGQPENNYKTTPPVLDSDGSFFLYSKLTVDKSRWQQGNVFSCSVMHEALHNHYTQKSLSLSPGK
light: DIVMTQSPATLSLSPGERATLSCRSSKSLQNVNGNTYLYWFQQKPGQSPQLLIYRMSNLNSGVPDRFSGSGSGTEFTLTISSLEPEDFAVYYCMQHLEYPITFGAGTKLEIKRTVAAPSVFIFPPSDEQLKSGTASVVCLLNNFYPREAKVQWKVDNALQSGNSQESVTEQDSKDSTYSLSSTLTLSKADYEKHKVYACEVTHQGLSSPVTKSFNRGEC
notes: Positions in EU numbering; copies: 2 + 2
For B2, the “EC50 (read off the curve)” value in experiment [3] is roughly 10 ng/mL. For the same molecule, the “Fold vs WT IgG1” value came out at 40.6 fold in experiment [1]; 0.765 fold in experiment [4]; 3.15 fold in experiment [5]; 3.52 fold in experiment [6]; 41.7 fold in experiment [2]. Further, the Kd was 36.1 nM in experiment [1]; 845 nM in experiment [4]; 60.8 nM in experiment [5]; 0.0935 nM in experiment [6]; 20.6 nM in experiment [2].

B3: A330D (antibody, human IgG1, kappa)
heavy: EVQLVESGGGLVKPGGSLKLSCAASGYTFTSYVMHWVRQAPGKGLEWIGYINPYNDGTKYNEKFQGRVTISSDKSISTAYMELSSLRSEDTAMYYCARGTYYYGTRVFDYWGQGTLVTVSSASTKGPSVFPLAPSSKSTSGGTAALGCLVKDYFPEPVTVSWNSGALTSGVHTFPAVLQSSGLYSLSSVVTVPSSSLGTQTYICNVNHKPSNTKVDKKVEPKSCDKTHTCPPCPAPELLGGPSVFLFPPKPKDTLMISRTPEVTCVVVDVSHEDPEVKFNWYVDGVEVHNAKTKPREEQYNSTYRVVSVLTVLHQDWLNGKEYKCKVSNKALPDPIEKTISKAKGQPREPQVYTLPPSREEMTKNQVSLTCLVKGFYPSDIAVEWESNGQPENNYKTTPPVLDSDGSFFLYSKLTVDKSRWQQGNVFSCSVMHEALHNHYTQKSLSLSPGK
light: DIVMTQSPATLSLSPGERATLSCRSSKSLQNVNGNTYLYWFQQKPGQSPQLLIYRMSNLNSGVPDRFSGSGSGTEFTLTISSLEPEDFAVYYCMQHLEYPITFGAGTKLEIKRTVAAPSVFIFPPSDEQLKSGTASVVCLLNNFYPREAKVQWKVDNALQSGNSQESVTEQDSKDSTYSLSSTLTLSKADYEKHKVYACEVTHQGLSSPVTKSFNRGEC
notes: HuAM4G7 anti-CD19 IgG1 (m1) with this Fc substitution, EU index; copies: 2 + 2
Take B3: the “Fold vs WT IgG1 (Kd)” value in the experiment with mFcγRIIb was 2.63 fold. The binding result (with cynoFcγRIIb; in experiment [1]) was “no binding” in each case.

B4: V266M/S267E (antibody, human IgG1, kappa)
heavy: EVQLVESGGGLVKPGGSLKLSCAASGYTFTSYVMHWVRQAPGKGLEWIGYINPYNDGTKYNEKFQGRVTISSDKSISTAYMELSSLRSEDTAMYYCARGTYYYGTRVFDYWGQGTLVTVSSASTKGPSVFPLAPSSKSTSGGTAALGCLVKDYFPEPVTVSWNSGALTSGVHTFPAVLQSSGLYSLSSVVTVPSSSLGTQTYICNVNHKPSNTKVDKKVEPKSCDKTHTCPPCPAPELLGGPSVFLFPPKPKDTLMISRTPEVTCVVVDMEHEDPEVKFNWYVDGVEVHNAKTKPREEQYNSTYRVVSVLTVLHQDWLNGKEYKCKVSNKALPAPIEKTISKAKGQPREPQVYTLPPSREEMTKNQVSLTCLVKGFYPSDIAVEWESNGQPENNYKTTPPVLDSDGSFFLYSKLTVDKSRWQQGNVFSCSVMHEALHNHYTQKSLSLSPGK
light: DIVMTQSPATLSLSPGERATLSCRSSKSLQNVNGNTYLYWFQQKPGQSPQLLIYRMSNLNSGVPDRFSGSGSGTEFTLTISSLEPEDFAVYYCMQHLEYPITFGAGTKLEIKRTVAAPSVFIFPPSDEQLKSGTASVVCLLNNFYPREAKVQWKVDNALQSGNSQESVTEQDSKDSTYSLSSTLTLSKADYEKHKVYACEVTHQGLSSPVTKSFNRGEC
notes: as for B1
As to B4, the “EC50 (read off the curve)” value in experiment [3] was roughly 10 ng/mL. Further, the “Fold vs WT IgG1” value worked out at 29.2 fold in experiment [1]; 10.9 fold in experiment [4]; 0.0448 fold in experiment [5]; 1.98 fold in experiment [6]; 30.7 fold in experiment [2]. Besides, the Kd in experiment [1] was determined as 50.2 nM; in experiment [4], 59.2 nM; in experiment [5], 4270 nM; in experiment [6], 0.166 nM; in experiment [2] it was 28 nM.

B5: A330H (antibody, human IgG1, kappa)
heavy: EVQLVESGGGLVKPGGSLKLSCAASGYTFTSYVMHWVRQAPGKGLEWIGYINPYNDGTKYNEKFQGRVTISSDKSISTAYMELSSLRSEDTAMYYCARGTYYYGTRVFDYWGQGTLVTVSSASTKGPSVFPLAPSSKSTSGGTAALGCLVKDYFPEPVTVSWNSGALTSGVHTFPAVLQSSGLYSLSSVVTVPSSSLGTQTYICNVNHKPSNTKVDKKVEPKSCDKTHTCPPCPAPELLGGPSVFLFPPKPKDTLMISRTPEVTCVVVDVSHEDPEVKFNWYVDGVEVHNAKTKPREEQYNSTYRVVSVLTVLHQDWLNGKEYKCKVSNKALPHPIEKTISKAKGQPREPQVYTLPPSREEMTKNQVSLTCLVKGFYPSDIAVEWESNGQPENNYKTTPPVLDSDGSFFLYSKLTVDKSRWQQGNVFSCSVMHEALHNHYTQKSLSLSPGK
light: DIVMTQSPATLSLSPGERATLSCRSSKSLQNVNGNTYLYWFQQKPGQSPQLLIYRMSNLNSGVPDRFSGSGSGTEFTLTISSLEPEDFAVYYCMQHLEYPITFGAGTKLEIKRTVAAPSVFIFPPSDEQLKSGTASVVCLLNNFYPREAKVQWKVDNALQSGNSQESVTEQDSKDSTYSLSSTLTLSKADYEKHKVYACEVTHQGLSSPVTKSFNRGEC
notes: as for B3
As for B5, in the experiment with mFcγRIIb, the “Fold vs WT IgG1 (Kd)” value was 0.013 fold. Also, the binding result (with cynoFcγRIIb; in experiment [1]) was “no binding” each time.

B6: L328E (antibody, human IgG1, kappa)
heavy: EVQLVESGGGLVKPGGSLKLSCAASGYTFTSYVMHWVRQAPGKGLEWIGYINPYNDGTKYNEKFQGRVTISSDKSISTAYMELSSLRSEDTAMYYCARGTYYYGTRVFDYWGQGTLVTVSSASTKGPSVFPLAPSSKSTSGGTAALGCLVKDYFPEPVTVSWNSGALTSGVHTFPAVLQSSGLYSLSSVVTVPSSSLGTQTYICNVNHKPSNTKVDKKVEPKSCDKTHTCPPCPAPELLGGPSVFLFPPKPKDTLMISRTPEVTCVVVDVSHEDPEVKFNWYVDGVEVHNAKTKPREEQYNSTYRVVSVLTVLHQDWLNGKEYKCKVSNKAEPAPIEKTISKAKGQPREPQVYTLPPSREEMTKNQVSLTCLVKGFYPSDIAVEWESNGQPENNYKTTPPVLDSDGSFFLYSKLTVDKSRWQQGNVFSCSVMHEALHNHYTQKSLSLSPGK
light: DIVMTQSPATLSLSPGERATLSCRSSKSLQNVNGNTYLYWFQQKPGQSPQLLIYRMSNLNSGVPDRFSGSGSGTEFTLTISSLEPEDFAVYYCMQHLEYPITFGAGTKLEIKRTVAAPSVFIFPPSDEQLKSGTASVVCLLNNFYPREAKVQWKVDNALQSGNSQESVTEQDSKDSTYSLSSTLTLSKADYEKHKVYACEVTHQGLSSPVTKSFNRGEC
notes: as for B3
Take B6: the “Fold vs WT IgG1 (Kd)” value with mFcγRIIb is 0.016 fold. Also, the binding result (with cynoFcγRIIb; in experiment [1]) was “no binding” each time.

What is called Kd is the concentration at which binding is half-saturated. The low end stands for higher affinity, the high end for lower affinity. For orientation: EC50 (read off the curve) means the concentration giving half of the maximal effect.

The values are drawn from patent US20130315910A1 (Xencor, published 2013).
